B1: monoclonal antibody B266-1 (antibody, human IgG1)
light: QIVLTQSPAIMSASPGEKVTMTCSASSRISYMYWYQQKPGTSPKRWIYDTSKLASGVPARFSGSGSGTSYSLTISTMEAEDAATYYCHQRSSYPTFGAGTKLELKSVAAPSVFIFPPSDEQLKSGTASVVCLLNNFYPREAKVQWKVDNALQSGNSQESVTEQDSKDSTYSLSSTLTLSKADYEKHKVYACEVTHQGLSSPVTKSFNRGEC
heavy: not shown
notes: B266 with the Fc part changed to human IgG1; also called B266-1 (Trx1-hIgG1); B266-1 (hTrx1-hIgG1)
B2: monoclonal antibody B264 (antibody, mouse IgG1, kappa, V domains shown)
VH: QVQLQQSGAELARPGASVKMSCKASGYTFTSYTMHWVKQRPGQGLEWIGYINPTSDYTNYNQKFKDKATLTADKSSSTAYMQLSSLTSEDSAVYFCASEGGFLYYFDYWGQGTTLTVSS
VL: DVLMTQTPLSLPVSLGDQASISCRSSQSIVHSNGNTYLEWYLQKPGQSPKLLIYKVSNRFSGVPDRFSGSGSGTDFTLKISRVEAEDLGVYYCFQGSHVPYTFGGGTKLEIKR
notes: also called AB264; B264 (Trx1-mIgG1)

Tests used:
Peptide_004 [1] = target: T1, Peptide_004 (human); assay: peptide microarray, 0.0016 ug/mL
T1 construct: 15-mer on microarray; not native form, recombinant insert region
T1 peptide: AADVHSQHHHHHHHH
Protocol: (§1) 5, 1, 0.2, 0.04, 0.008 and 0.0016 μg/mL serial dilutions were incubated on a single multi-well microarray slide at 30° C. for 1 hour. The slide includes 21 individual mini-arrays (one mini-array per sample dilution).
(§2) DyLight 650 was used as a label. False-positive binding to a peptide was evaluated by performing one additional control incubation in which only a secondary antibody was applied on the same microarray slide. Before performing each step, the microarrays were washed with a washing buffer.

Peptide_005 = target: T2, Peptide_005 (human); assay: peptide microarray
T2 construct: 15-mer on microarray; not native form, recombinant insert region
T2 peptide: ADVHSQHHHHHHHHV
Protocol: as §1, §2
(§3) MMC2 is the same as the average value of all three cases on a microarray except when the coefficient of variation (CV), which is the standard deviation divided by the average value, is larger than 0.5. In this case, the average of the two closest values (MC2) is assigned to MMC2. The thick black line in the heatmap indicates the culture of a control only using a secondary anti-mouse IgG antibody. The culture of individual antibody samples is indicated by a thin blue line. […] However, since Peptide_004 and Peptide_005 are not native forms, these peptides were excluded from an epitope candidate group.

Peptide_004 [2] = target: T1, Peptide_004; assay: peptide microarray
Protocol: as §1, §2, §3

Peptide_045 = target: T3, Peptide_045 (human); assay: peptide microarray, 0.0016 ug/mL
T3 construct: 15-mer of hTrx1 on microarray
T3 peptide: SATWCGPCKMIKPFF
Protocol: as §1, §2

Peptide_024 = target: T4, Peptide_024 (human); assay: peptide microarray, 0.0016 ug/mL
T4 construct: 15-mer of hTrx1 on microarray
T4 peptide: SKTAFQEALDAAGDK
Protocol: as §1, §2

Peptide_092 = target: T5, Peptide_092 (human); assay: peptide microarray, 0.0016 ug/mL
T5 construct: 15-mer of hTrx1 on microarray
T5 peptide: PTFQFFKKGQKVGEF
Protocol: as §1, §2

Peptide_025 = target: T6, Peptide_025 (human); assay: peptide microarray, 0.0016 ug/mL
T6 construct: 15-mer of hTrx1 on microarray
T6 peptide: KTAFQEALDAAGDKL
Protocol: as §1, §2

Peptide_086 = target: T7, Peptide_086 (human); assay: peptide microarray, 0.0016 ug/mL
T7 construct: 15-mer of hTrx1 on microarray
T7 peptide: CEVKCMPTFQFFKKG
Protocol: as §1, §2

Peptide_018 [3] = target: T8, Peptide_018 (human); assay: peptide microarray, 0.0016 ug/mL
T8 construct: 15-mer on microarray; not native form, includes recombinant insert region; also called HVKQIESKTAFQEAL
T8 peptide: HVKQIESKTAFQEAL
Protocol: as §1, §2

Peptide_022 = target: T9, Peptide_022 (human); assay: peptide microarray, 0.0016 ug/mL
T9 construct: 15-mer of hTrx1 on microarray
T9 peptide: IESKTAFQEALDAAG
Protocol: as §1, §2

Peptide_094 = target: T10, Peptide_094 (human); assay: peptide microarray, 0.0016 ug/mL
T10 construct: 15-mer of hTrx1 on microarray
T10 peptide: FQFFKKGQKVGEFSG
Protocol: as §1, §2

Peptide_021 = target: T11, Peptide_021 (human); assay: peptide microarray, 0.0016 ug/mL
T11 construct: 15-mer of hTrx1 on microarray
T11 peptide: QIESKTAFQEALDAA
Protocol: as §1, §2

Peptide_012 = target: T12, Peptide_012 (human); assay: peptide microarray
T12 construct: 15-mer on microarray; not native form, includes recombinant insert region
T12 peptide: HHHHHHHVKQIESKT
Protocol: as §1, §2, §3

Peptide_018 [4] = target: T8, Peptide_018; assay: peptide microarray
Protocol: as §1, §2, §3

Binder	signal (blank-control = 1) (Peptide_004 [1])	signal, fold of the average background level (Peptide_005) [fold]	signal, fold of the average background level (Peptide_004 [2]) [fold]	signal (blank-control = 1) (Peptide_045)	signal (blank-control = 1) (Peptide_024)	signal (blank-control = 1) (Peptide_092)	signal (blank-control = 1) (Peptide_025)	signal (blank-control = 1) (Peptide_086)	signal (blank-control = 1) (Peptide_018 [3])	signal (blank-control = 1) (Peptide_022)	signal (blank-control = 1) (Peptide_094)	signal (blank-control = 1) (Peptide_021)	signal, fold of the average background level (Peptide_012) [fold]	signal, fold of the average background level (Peptide_018 [4]) [fold]
B1	0.99	~8	~8	–	–	–	–	–	–	–	–	–	–	–
B2	–	–	–	4.08	0.72	1.86	0.88	0.82	0.68	0.72	0.62	0.73	~7	~7

— patent publication US20240192215A1 (E AND S HEALTHCARE, published 2024)
